Laboratory results reported in patent US20220119492A1 (MEDIKINE, published 2022).
Ends that are not written are not given here.

Assays:
Experiment in all cases: competition ELISA, peptide tracer
[1] = target: T1, cynomolgus monkey Rγc subunit (cynomolgus monkey)
T1 construct: also called cyno-IL-2Rγc subunit
Method: (§1) Binding of Fc fusions to IL-2Rβ and IL-2Rγc were measured using a competition binding ELISA with biotinylated peptide/NeutrAvidin-HRP tracer. ELISA plate was prepared as described in Example 27.
(§2) The plate was washed 4 times with PT (1×PBS, 0.05% Tween® 20) buffer. Fifty (50) μL of IL-2R ligands serially diluted in PBT was added to appropriate wells then incubated at 4° C. for 1 hr.
(§3) At the appropriate time, the precomplexed bn-peptide/NA-HRP tracer was diluted to 2-fold its predetermined binding EC80 (typically 30 to 10 nM) without washing. fifty (50) μL of bn-peptide/NA-HRP tracer was added to each well and incubated at 4° C. for 45 mins.

[2] = target: T2, human IL-2Rβ (CD122 protein, Fc Tag) (27-239) (human, UniProt P14784 27-239)
T2 construct: range 27-239; Bought protein; also called hu-IL-2Rβ subunit; IL-2Rβ subunit; not shown: Fc tag of the bought protein
T2 sequence (looked up): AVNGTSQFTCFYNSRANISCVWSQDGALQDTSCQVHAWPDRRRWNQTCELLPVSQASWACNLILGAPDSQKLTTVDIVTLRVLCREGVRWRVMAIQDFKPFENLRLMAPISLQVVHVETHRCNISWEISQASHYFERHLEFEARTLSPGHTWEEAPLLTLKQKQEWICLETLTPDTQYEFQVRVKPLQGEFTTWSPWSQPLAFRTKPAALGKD
Method: as §1, §2, §3

[3] = target: T3, human IL-2Rγc (CD132 protein, Fc Tag) (23-254) (human, UniProt P31785 23-254)
T3 construct: range 23-254; Bought protein; also called hu-IL-2Rγc subunit; IL-2Rγc subunit; not shown: Fc tag of the bought protein
T3 sequence (looked up): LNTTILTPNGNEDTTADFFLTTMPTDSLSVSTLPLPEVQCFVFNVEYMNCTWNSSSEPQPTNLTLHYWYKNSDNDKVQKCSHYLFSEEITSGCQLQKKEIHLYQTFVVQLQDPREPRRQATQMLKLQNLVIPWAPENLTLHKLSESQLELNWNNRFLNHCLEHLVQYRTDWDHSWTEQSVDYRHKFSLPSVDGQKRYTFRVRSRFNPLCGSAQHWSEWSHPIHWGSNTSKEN
Method: as §1, §2, §3

[4] = target: T4, cynomolgus monkey IL-2Rβ subunit (cynomolgus monkey)
T4 construct: Bought protein; also called cyno-IL-2Rβ subunit
Method: as §1, §2, §3

Measured: IC50

T4 sequence (Q38J85 whole entry): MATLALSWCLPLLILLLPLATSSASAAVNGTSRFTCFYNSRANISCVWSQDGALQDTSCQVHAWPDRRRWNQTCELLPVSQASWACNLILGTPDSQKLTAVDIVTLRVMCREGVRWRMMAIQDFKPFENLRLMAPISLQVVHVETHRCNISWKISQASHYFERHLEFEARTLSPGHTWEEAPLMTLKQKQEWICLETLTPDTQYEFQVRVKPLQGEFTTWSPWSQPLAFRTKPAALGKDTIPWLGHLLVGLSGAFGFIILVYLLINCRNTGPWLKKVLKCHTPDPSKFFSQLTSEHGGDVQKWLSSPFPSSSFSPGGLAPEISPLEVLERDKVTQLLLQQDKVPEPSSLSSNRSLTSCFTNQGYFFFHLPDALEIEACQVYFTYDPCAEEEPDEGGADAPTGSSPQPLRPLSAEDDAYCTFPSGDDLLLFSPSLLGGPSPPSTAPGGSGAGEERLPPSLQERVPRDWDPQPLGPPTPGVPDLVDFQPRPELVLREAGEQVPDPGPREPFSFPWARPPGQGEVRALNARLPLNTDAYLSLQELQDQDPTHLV

B1: SEQ ID NO 4178 (peptide)
peptide: GGELLVDCFKVKVGELCDLFFGPAPAPAPAPAPAPAPAGVVCQDWEGVELCWQGG
< 100 µM: [1] | [2] | [3] | [4]

B2: SEQ ID NO 4181 (peptide)
peptide: GGELLVDCFRVRVGELCDLFFGPAPAPAPAPAPAPAPAGVVCQDWEGVELCWQGG
< 100 µM: [1] | [2] | [3] | [4]

LVDCFKVKVGELCDLFFGPAPAPAPAPAPAPAPAGVVCQDWEGVELCWQ [SEQ ID NO 4179]
< 100 µM: [1] | [2] | [3] | [4]

B3: IL-2Rβγc ligand BGL22 (peptide)
peptide 1: GGRYVHDCFIAQVGALCDLFLHPAPAPAPAPAPAPAPA
peptide 2: VVCQDWEGVELCWQGG
modifications: cysteine pairing not given here; also: two chains joined by non-peptidyl linker L11 (click chemistry)
notes: Made by click chemistry
< 100 µM: [1] | [2] | [3] | [4]

B4: IL-2Rβγc ligand BGL24 (peptide)
peptide 1: GGRYVHDCFIAQVGDLCDLALHPAPAPAPAPAPAPAPA
peptide 2: VVCQDWEGVELCWQGG
modifications: cysteine pairing not given here; also: two chains joined by non-peptidyl linker L11 (click chemistry)
notes: Made by click chemistry
< 100 µM: [1] | [2] | [3] | [4]

B5: IL-2Rβγc ligand BGL23 (peptide)
peptide 1: GGRYVHACFIAQVGDLCDLFLHPAPAPAPAPAPAPAPA
peptide 2: VVCQDWEGVELCWQGG
modifications: cysteine pairing not given here; also: two chains joined by non-peptidyl linker L11 (click chemistry)
notes: Made by click chemistry
< 100 µM: [1] | [2] | [3] | [4]

B6: SEQ ID NO 4170 (peptide)
peptide: GGGELLVDCFKVKVGELCDLFFGGGGGSGGGGSGGGGSGGGGSGGVVCQDWEGVELCWQGG
< 100 µM: [1] | [2] | [3] | [4]

B7: SEQ ID NO 4177 (peptide)
peptide: GGELLVDCFKVKVGELCDLFFGPAPAPAPAPAPAPAPAPAPAPAVVCQDWEGVELCWQGG
< 100 µM: [1] | [2] | [3] | [4]

VDCFKVKVGELCDLFFGPAPAPAPAPAPAPAPAGVVCQDWEGVELCWQ [SEQ ID NO 4180]
< 100 µM: [1] | [2] | [3] | [4]

B8: SEQ ID NO 4184 (peptide)
peptide: GGRYVHDCFIAQVGDACDLFLHPAPAPAPAPAPAPAPAGVVCQDWEGVELCWQGG
< 100 µM: [1] | [2] | [3] | [4]

B9: SEQ ID NO 4185 (peptide)
peptide: GGRYVHDCFIGQVGDLCDLFLHPAPAPAPAPAPAPAPAGVVCQDWEGVELCWQGG
< 100 µM: [1] | [2] | [3] | [4]
